The supplement of paper PMC10724198
± gives the standard deviation of the averaged measurements.

Test system: Saccharomyces cerevisiae
Experiment: protein stability index of tFT-peptide fusion (C-terminal peptide) (PSI (0-1 scale)); higher = more stable (slower turnover)
Settings: genetic background: wild type; temperature: 30 C
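Also: PSI is a weighted mean of sequencing reads over stability bins, variants kept only with over 10 reads, mCherry proximal and sfGFP distal, peptide attached via GGGS linker.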

Sequence	protein stability index
TTYFLASSEWAG	0.7739 ± 0.003
VRGLGFVSWFFL	0.651 ± 0.025
TVPESGSIGERK	0.672 ± 0.03
PFFSFGGLRFLL	0.6621 ± 0.0053
RKTEGGGEGLAV	0.728 ± 0.035
TLTSPFGSPTWD	0.638 ± 0.31
PPSTPPPSPPTP	0.725 ± 0.072
VLPHFSLSTPSP	0.7493 ± 0.0052
RKKYPLMINGKR	0.711 ± 0.0073
GAPPLAPTPPPP	0.745 ± 0.024
GFWESLGGVGAE	0.697 ± 0.049
PTPPVPPPRTLL	0.667 ± 0.055
AGGKGVGRGWGL	0.698 ± 0.051
IWGKREDKNVYR	0.71 ± 0.025
VGGGFSSVVWLW	0.658 ± 0.043
PPLLPPPLTPPD	0.628 ± 0.051
IEGKDSQEREGR	0.706 ± 0.075
RPFATVLRTRAV	0.71 ± 0.0077
VSPLPSPVPLLP	0.69 ± 0.076
RGWAGGRQGCGG	0.746 ± 0.055
GGEGWGAFWGGE	0.713 ± 0.05
NDNNSRSGRRIF	0.66 ± 0.019
PPPPRLPARLAP	0.77 ± 0.16
LGGGGGGGGRLR	0.618 ± 0.0091
WSGGAGGGGRLG	0.645 ± 0.088
PQSKWQWHSGLT	0.692 ± 0.065

Sequence	protein stability index
FGDLAVFFAFLL	0.564 ± 0.0069
VWGGYGQFYGWK	0.606 ± 0.049
GAEKEPEPRRLA	0.699 ± 0.06
VGCWATGVGGPS	0.706 ± 0.038
RGLGVFGVVSPA	0.7 ± 0.057
LYKSEGVYTGFW	0.729 ± 0.12
ALRRWWCRGGRI	0.813 ± 0.024
GAEHGVRTTAVT	0.658 ± 0.014
INKATYTQIYKN	0.667 ± 0.021
GLCGGFGGLRGL	0.743 ± 0.031
RSPPPLPSPPSH	0.709 ± 0.035
SPLRSCPADPSQ	0.763 ± 0.082
PAFRSDKQQSQE	0.703 ± 0.074
VVVLGVGGVGWW	0.704 ± 0.019
LLLPIIPRKLDL	0.673 ± 0.022
SATALTANHPKM	0.677 ± 0.0096
GLFPGSRLRLVE	0.666 ± 0.011
PPSLLLCPLFTS	0.602 ± 0.075
YGCSRALGCMGG	0.596 ± 0.14
IHSPSAYLQPSF	0.761 ± 0.029
CSDISASTVSRL	0.715 ± 0.039
NSKGKKFKCLKK	0.766 ± 0.0099
PPPPLPHPPAAS	0.7 ± 0.02
PLSFPTFVPLPI	0.663 ± 0.043
GVIGPFSHDGCA	0.662 ± 0.021
FVGVGLVRVVGW	0.618 ± 0.018

Sequence	protein stability index
GRLPPYLSRRLR	0.7039 ± 0.0012
AFHTLSGFRRVP	0.673 ± 0.019
HLIPSPPTPPRP	0.664 ± 0.0072
PRLLSTYAGSKW	0.723 ± 0.012
FDMYACCQRGAV	0.6639 ± 0.0027
GRKSESEEEQRR	0.677 ± 0.052
PNLARPSTPTTS	0.72 ± 0.023
LIRGVVVGLDGD	0.685 ± 0.021
VPSGVWGVLGFA	0.667 ± 0.048
LLVLFRWSGIPG	0.552 ± 0.034
KKKKAKKIKKQK	0.675 ± 0.059
GVVGLEVLGRWG	0.687 ± 0.047
DKSGVYYMYSFK	0.733 ± 0.059
EEGGTRGASAVV	0.7134 ± 0.0024
RGARTGGGRDGS	0.705 ± 0.025
YKPKGSKKFKNK	0.624 ± 0.029
RKKKKKKRGKNR	0.621 ± 0.043
KALQRKCRKRHK	0.673 ± 0.039
NQKEIKYTLKYI	0.684 ± 0.018
LTLPPACFPRLR	0.723 ± 0.059
PPPGPPPPPPYP	0.656 ± 0.12
MNRTDPSRDEKP	0.804 ± 0.094
WGGGGVRGGMGG	0.781 ± 0.043
GGMMRGHRHRCW	0.812 ± 0.0095
KQQTPVQNKDLR	0.71399 ± 0.0006
IFRFHRSRNSKY	0.722 ± 0.029

Sequence	protein stability index
YDIAVDAEIDPY	0.685 ± 0.0081
LRFTYSFIPPSV	0.631 ± 0.00064
WGGGGGWSGACL	0.6909 ± 0.0059
LCVGVGAAIRLW	0.598 ± 0.039
HPKASNSLRFSS	0.649 ± 0.0072
TPWIRGRTHPGR	0.705 ± 0.016
IKNQNKKKKNKK	0.689 ± 0.05
AHKSFRMVDGNR	0.678 ± 0.066
WEAPCGGTLVGR	0.697 ± 0.048
IIDCQVSFSFLI	0.588 ± 0.063
TYPMGVVLVESG	0.498 ± 0.011
TRLTSSGVGSVP	0.683 ± 0.1
SRIPARCDGKCI	0.6722 ± 0.0037
LLLSPAFFSCFL	0.638 ± 0.095
GVGGGMGMGERW	0.788 ± 0.18
PPPLLCPSSAPP	0.783 ± 0.087
KEHKSQRSRVWR	0.719 ± 0.011
PPPTPTPPSQPT	0.681 ± 0.012
STTPKFNILASD	0.646 ± 0.022
RDALVNADKIGR	0.703 ± 0.061
GAVRGDRLTHTG	0.734 ± 0.028
CFPYFCGFLGPL	0.697 ± 0.031
GPVLILLSNNEM	0.731 ± 0.061
EQICNCKIIMVE	0.5669 ± 0.003
RTSPRSHVSRSL	0.79 ± 0.056
VAYAGIRHDIPQ	0.68 ± 0.081

Sequence	protein stability index
PSRSATRPFPLS	0.707 ± 0.071
SSTPGWVSCDKI	0.735 ± 0.029
VPSPFIPVSPTL	0.669 ± 0.012
HFVAPLSPRGSL	0.633 ± 0.038
IGLVVVRPKIMI	0.558 ± 0.012
RGRFGYTSSTLA	0.686 ± 0.041
GDTKKRTQGRGV	0.653 ± 0.011
TGAPSKQYDRFL	0.747 ± 0.045
FTPDFTPKGSLS	0.791 ± 0.088
RVLLYWRGSGVL	0.577 ± 0.071
CPPPPPPPPSRC	0.704 ± 0.036
FVGPAWLGVRSC	0.659 ± 0.012
FSGLELRVGCGA	0.732 ± 0.086
RLPPPPPPPSTP	0.725 ± 0.053
VGTPPSEVGVLA	0.628 ± 0.035
PLPLPPPSLSPL	0.73279 ± 8.7e-05
RLPPPPPSPFPS	0.778 ± 0.056
LVLPTSRPRCFI	0.661 ± 0.027
LSAEAGAGLRAM	0.684 ± 0.034
SVEKYDGGKGVV	0.69 ± 0.0095
TSRGGFCLGGVF	0.729 ± 0.018
LALFPDPSSIIL	0.7765 ± 0.0075
FPHSPPFIPHPP	0.647 ± 0.021
CTRGVVSPKLFV	0.786 ± 0.17
RFTPLSFCTDRV	0.658 ± 0.025
LPPLRVIANIRG	0.659 ± 0.019

Sequence	protein stability index
LCSPGPLPPSYF	0.705 ± 0.045
LRMHFPPHPSSL	0.691 ± 0.067
PALAPLRPLPPV	0.669 ± 0.0073
RDAWLGMSQYTF	0.7302 ± 0.0051
RCGDGLSRLTPL	0.71 ± 0.032
YGSGSDGRGGPG	0.662 ± 0.0077
PPHPKPPPAPPP	0.527 ± 0.041
LFSDAWVLTDWW	0.753 ± 0.044
SLSSAALFHGPF	0.598 ± 0.065
GSSKVKEGNACR	0.694 ± 0.057
FVKQSHYCLFHL	0.634 ± 0.011
RFCQSHTSVSSF	0.652 ± 0.039
REDAKLGYGKKK	0.637 ± 0.061
IVLLSLSCRSPG	0.594 ± 0.014
PPSTRPYRLFPL	0.682 ± 0.048
LFKRTWRVEGFG	0.705 ± 0.094
VGIPKEADKGGF	0.704 ± 0.035
PLAPPLRPLVSP	0.66 ± 0.076
SGSSRLRTSPTG	0.814 ± 0.056
PPPPPHAEAVSR	0.59 ± 0.029
VFGGSLICVFRV	0.567 ± 0.025
MGMSAGCGGWSG	0.6867 ± 0.0055
SRFPPDTFFSFL	0.802 ± 0.14
EPASLTVFEGTS	0.587 ± 0.022
STQIRQILERKC	0.653 ± 0.051
EKSEKSRGNRYV	0.72 ± 0.076

Sequence	protein stability index
PFGSYIRHRENT	0.759 ± 0.14
EMGGLKACWGVG	0.572 ± 0.022
QLETFGRDLTIP	0.716 ± 0.11
RRTAVEEWGVGG	0.672 ± 0.12
KKAKRKHLLGRA	0.66 ± 0.017
LPSPSPPPPLLL	0.677 ± 0.015
LCRSSIILTLLL	0.586 ± 0.057
LSPLSVPAPPSP	0.655 ± 0.027
PTAPLIPTGGAP	0.685 ± 0.029
SVPTPPLVPSIS	0.665 ± 0.07
RLGWGGVGGAGV	0.711 ± 0.033
ISCVSFCCLFDL	0.601 ± 0.0022
GVDVSCVSPFGG	0.705 ± 0.03
PPPPPTFPPPRS	0.817 ± 0.025
TDFPRDFPPVDL	0.7526 ± 0.0029
YSLQSCGFLANE	0.642 ± 0.03
VPNTFVGVLICP	0.607 ± 0.026
CGSCFIKRFGGG	0.631 ± 0.034
PPPPLSPPPPRP	0.693 ± 0.05
KKIKKKQTTLKR	0.665 ± 0.081
RHLVSPSTRAIS	0.77 ± 0.15
SLPRWLPPPLQS	0.687 ± 0.0095
LPVLCSRVFVSS	0.517 ± 0.023
PPPLSVPVPPLS	0.68 ± 0.021
PTPPHPTSPPPP	0.693 ± 0.01
IGITWDVFLGLG	0.705 ± 0.03

Sequence	protein stability index
CEVGSKGCACRV	0.649 ± 0.025
RYIKSRMLIIER	0.56 ± 0.049
HVTHRAVNVPLE	0.674 ± 0.029
LRVKVPLLGLWA	0.557 ± 0.025
CARAAFRGYYAQ	0.744 ± 0.074
TVRFTHQRNTVK	0.689 ± 0.037
AGSAAGGAWSGG	0.695 ± 0.019
LDLCTVIRFVGI	0.723 ± 0.029
TVYTPGVFVKTV	0.562 ± 0.044
RDPIGRPEMSKI	0.67 ± 0.086
PALPPASPRPAL	0.776 ± 0.072
PPSQRPPPPPPL	0.704 ± 0.023
VNVSLFWFGTYL	0.61 ± 0.054
VVVGRWSVLSSV	0.522 ± 0.017
VNEEGCDILVRT	0.757 ± 0.013
PRIGEARNLCYK	0.6816 ± 0.006
VRDLDMEEISRY	0.727 ± 0.05
RQQRKIYTDKQD	0.754 ± 0.0057
PRPRPRSGWILL	0.696 ± 0.036
VSVVVGLLFVGF	0.5 ± 0.065
